From patent US20250114433A1 (published 2025)

T1: KRAS G12D (same sequence in NRAS and HRAS G12D) peptide on HLA-A*11:01 (human)
T1 peptide: VVVGADGVGK

T2: KRAS G12V (same sequence in NRAS and HRAS G12V) peptide on HLA-A*11:01 (human)
T2 peptide: VVVGAVGVGK

T3: KRAS G12D (same sequence in NRAS and HRAS G12D) peptide on HLA-A*11:01 (human)
T3 peptide: VVGADGVGK

T4: KRAS G12V (same sequence in NRAS and HRAS G12V) peptide on HLA-A*11:01 (human)
T4 peptide: VVGAVGVGK

T5: KRAS G12V peptide on HLA-A*02:01 (human)
T5 peptide: KLVVVGAVGV


What was measured:
[1] = biological target: T1, KRAS G12D (same sequence in NRAS and …); test: cytokine release
[2] = biological target: T2, KRAS G12V (same sequence in NRAS and …); test: cytokine release
[3] = biological target: T3, KRAS G12D (same sequence in NRAS and …); test: cytokine release
[4] = biological target: T4, KRAS G12V (same sequence in NRAS and …); test: cytokine release
[5] = biological target: T5, KRAS G12V peptide on HLA-A*02:01; test: multimer staining

Binder | binding result [1] | binding result [2] | binding result [3] | binding result [4] | binding result [5]
TCR15 (TCR, V domains shown) Valpha: QKEVEQNSGPLSVPEGAIASLNCTYSDRGSQSFFWYRQYSGKSPELIMFIYSNGDKEDGRFTAQLNKASQYVSLLIRDSQPSDSATYLCAVNARGNMLTFGGGTRLMVKP Vbeta: SQTIHQWPATLVQPVGSPLSLECTVEGTSNPNLYWYRQAAGRGLQLLFYSVGIGQISSEVPQNLSASRPQDRQFILSSKKLLLSDSGFYLCAWTLTGFGQPQHFGDGTRLSIL | no recognition | recognises | no recognition | no recognition | 
A2 KRAS TCR03 (TCR, V domains shown) Valpha: GEDVEQSLFLSVREGDSSVINCTYTDSSSTYLYWYKQEPGAGLQLLTYIFSNMDMKQDQRLTVLLNKKDKHLSLRIADTQTGDSAIYFCAERTDTDKLIFGTGTRLQVFP Vbeta: GAGVSQTPSNKVTEKGKYVELRCDPISGHTALYWYRQSLGQGPEFLIYFQGTGAADDSGLPNDRFFAVRPEGSVSTLKIQRTERGDSAVYLCASSPLAANEQFFGPGTRLTVL |  |  |  |  | recognises
TCR19 (TCR, V domains shown) Valpha: DQQVKQNSPSLSVQEGRISILNCDYTNSMFDYFLWYKKYPAEGPTFLISISSIKDKNEDGRFTVFLNKSAKHLSLHIVPSQPGDSAVYFCAASANNNDMRFGAGTRLTVKP Vbeta: DAGVIQSPRHEVTEMGQEVTLRCKPISGHDYLFWYRQTMMRGLELLIYFNNNVPIDDSGMPEDRFSAKMPNASFSTLKIQPSEPRDSAVYFCASSPTGGGMLGQYFGPGTRLTVL | no recognition |  | no recognition | recognises | 
A11 KRAS TCR_129_8 (TCR, V domains shown) Valpha: DQQVKQNSPSLSVQEGRISILNCDYTNSMFDYFLWYKKYPAEGPTFLISISSIKDKNEDGRFTVFLNKSAKHLSLHIVPSQPGDSAVYFCAANTNAGKSTFGDGTTLTVKP Vbeta: DTGVSQDPRHKITKRGQNVTFRCDPISEHNRLYWYRQTLGQGPEFLTYFQNEAQLEKSRLLSDRFSAERPKGSFSTLEIQRTEQGDSAMYLCASSTGTAEQYFGPGTRLTVT |  | recognises |  | recognises | 
A11_TCR22 (TCR, V domains shown) Valpha: QKEVEQDPGPLSVPEGAIVSLNCTYSNSAFQYFMWYRQYSRKGPELLMYTYSSGNKEDGRFTAQVDKSSKYISLFIRDSQPSDSATYLCAMSAGAAGNKLTFGGGTRVLVKP Vbeta: EADIYQTPRYLVIGTGKKITLECSQTMGHDKMYWYQQDPGMELHLIHYSYGVNSTEKGDLSSESTVSRIRTEHFPLTLESARPSHTSQYLCASSQGLYNEQFFGPGTRLTVL | recognises | no recognition | no recognition | no recognition | 
TCR21 (TCR, V domains shown) Valpha: QKEVEQDPGPLSVPEGAIVSLNCTYSNSAFQYFMWYRQYSRKGPELLMYTYSSGNKEDGRFTAQVDKSSKYISLFIRDSQPSDSATYLCAMSGGNAGNMLTFGGGTRLMVKP Vbeta: EADIYQTPRYLVIGTGKKITLECSQTMGHDKMYWYQQDPGMELHLIHYSYGVNSTEKGDLSSESTVSRIRTEHFPLTLESARPSHTSQYLCASSVGLYNEQFFGPGTRLTVL | recognises | no recognition | no recognition | no recognition | 
A11 KRAS TCR_141_7 (TCR, V domains shown) Valpha: AQSVTQPDIHITVSEGASLELRCNYSYGATPYLFWYVQSPGQGLQLLLKYFSGDTLVQGIKGFEAEFKRSQSSFNLRKPSVHWSDAAEYFCAVTGGGNKLTFGTGTQLKVEL Vbeta: DTGVSQDPRHKITKRGQNVTFRCDPISEHNRLYWYRQTLGQGPEFLTYFQNEAQLEKSRLLSDRFSAERPKGSFSTLEIQRTEQGDSAMYLCASSLAGETGELFFGEGSRLTVL | recognises |  |  |  | 
A11 KRAS TCR_220_21 (TCR, V domains shown) Valpha: GEDVEQSLFLSVREGDSSVINCTYTDSSSTYLYWYKQEPGAGLQLLTYIFSNMDMKQDQRLTVLLNKKDKHLSLRIADTQTGDSAIYFCAEPIIGGNTPLVFGKGTRLSVIA Vbeta: GAGVSQSPRYKVAKRGQDVALRCDPISGHVSLFWYQQALGQGPEFLTYFQNEAQLDKSGLPSDRFFAERPEGSVSTLKIQRTQQEDSAVYLCASSSEGLAGGPTAGELFFGEGSRLTVL | no recognition | recognises | no recognition |  | 
TCR23 (TCR, V domains shown) Valpha: TQLLEQSPQFLSIQEGENLTVYCNSSSVFSSLQWYRQEPGEGPVLLVTVVTGGEVKKLKRLTFQFGDARKDSSLHITAAQPGDTGLYLCAGVREAGGTSYGKLTFGQGTILTVHP Vbeta: DAEITQSPRHKITETGRQVTLACHQTWNHNNMFWYRQDLGHGLRLIHYSYGVQDTNKGEVSDGYSVSRSNTEDLPLTLESAASSQTSVYFCASSEYVGAHEQYFGPGTRLTVT | no recognition | recognises | no recognition | no recognition | 
TCR20 (TCR, V domains shown) Valpha: DAKTTQPPSMDCAEGRAANLPCNHSTISGNEYVYWYRQIHSQGPQYIIHGLKNNETNEMASLIITEDRKSSTLILPHATLRDTAVYYCIVRLNSGNTPLVFGKGTRLSVIA Vbeta: EAGVAQSPRYKIIEKRQSVAFWCNPISGHATLYWYQQILGQGPKLLIQFQNNGVVDDSQLPKDRFSAERLKGVDSTLKIQPAKLEDSAVYLCASSPTFPAGDRDTQYFGPGTRLTVL | no recognition | recognises | no recognition | recognises | 
TCR18 (TCR, V domains shown) Valpha: SQQGEEDPQALSIQEGENATMNCSYKTSINNLQWYRQNSGRGLVHLILIRSNEREKHSGRLRVTLDTSKKSSSLLITASRAADTASYFCATDEGGGADGLTFGKGTHLIIQP Vbeta: DSGVTQTPKHLITATGQRVTLRCSPRSGDLSVYWYQQSLDQGLQFLIQYYNGEERAKGNILERFSAQQFPDLHSELNLSSLELGDSALYFCASSVTWGPYEQYFGPGTRLTVT | no recognition | no recognition | no recognition | no recognition | 
TCR14 (TCR, V domains shown) Valpha: SQQGEEDPQALSIQEGENATMNCSYKTSINNLQWYRQNSGRGLVHLILIRSNEREKHSGRLRVTLDTSKKSSSLLITASRAADTASYFCATDEGGGADGLTFGKGTHLIIQP Vbeta: DSGVTQTPKHLITATGQRVTLRCSPRSGDLSVYWYQQSLDQGLQFLIQYYNGEERAKGNILERFSAQQFPDLHSELNLSSLELGDSALYFCASTHGRDSTDTQYFGPGTRLTVL | no recognition | no recognition | no recognition | recognises | 

Other lines, results leading:

binding result [1] | binding result [2] | binding result [3] | binding result [4] | binding result [5] | Binder
recognises |  |  |  |  | A11 KRAS TCR_129_2 (TCR, V domains shown) Valpha: SQQGEEDPQALSIQEGENATMNCSYKTSINNLQWYRQNSGRGLVHLILIRSNEREKHSGRLRVTLDTSKKSSSLLITASRAADTASYFCASSGGGADGLTFGKGTHLIIQP Vbeta: KAGVTQTPRYLIKTRGQQVTLSCSPISGHRSVSWYQQTPGQGLQFLFEYFSETQRNKGNFPGRFSGRQFSNSRSEMNVSTLELGDSALYLCASSLGGAGETQYFGPGTRLLVL
recognises | no recognition | no recognition | no recognition |  | A11_TCR16 (TCR, V domains shown) Valpha: KDQVFQPSTVASSEGAVVEIFCNHSVSNAYNFFWYLHFPGCAPRLLVKGSKPSQQGRYNMTYERFSSSLLILQVREADAAVYYCVLNRDDKIIFGKGTRLHILP Vbeta: DAGVIQSPRHEVTEMGQEVTLRCKPISGHDYLFWYRQTMMRGLELLIYFNNNVPIDDSGMPEDRFSAKMPNASFSTLKIQPSEPRDSAVYFCASSRLGPYNEQFFGPGTRLTVL
recognises | no recognition | no recognition | no recognition |  | TCR17 (TCR, V domains shown) Valpha: KVTQAQTEISVVEKEDVTLDCVYETRDTTYYLFWYKQPPSGELVFLIRRNSFDEQNEISGRYSWNFQKSTSSFNFTITASQVVDSAVYFCALSEVHASGGSYIPTFGRGTSLIVHP Vbeta: DVKVTQSSRYLVKRTGEKVFLECVQDMDHENMFWYRQDPGLGLRLIYFSYDVKMKEKGDIPEGYSVSREKKERFSLILESASTNQTSMYLCASSLGAGQHNSPLHFGNGTRLTVT
recognises | no recognition | no recognition | no recognition |  | A11 KRAS TCR_141_1 (TCR, V domains shown) Valpha: AQTVTQSQPEMSVQEAETVTLSCTYDTSESDYYLFWYKQPPSRQMILVIRQEAYKQQNATENRFSVNFQKAAKSFSLKISDSQLGDAAMYFCALKTSYDKVIFGPGTSLSVIP Vbeta: NAGVTQTPKFQVLKTGQSMTLQCAQDMNHEYMSWYRQDPGMGLRLIHYSVGAGITDQGEVPNGYNVSRSTTEDFPLRLLSAAPSQTSVYFCASSLGAGEWKSPLHFGNGTRLTVT
 | recognises |  | recognises |  | A11 KRAS TCR_141_6 (TCR, V domains shown) Valpha: SQQGEEDPQALSIQEGENATMNCSYKTSINNLQWYRQNSGRGLVHLILIRSNEREKHSGRLRVTLDTSKKSSSLLITASRAADTASYFCATDVFQGAQKLVFGQGTRLTINP Vbeta: EAGVAQSPRYKIIEKRQSVAFWCNPISGHATLYWYQQILGQGPKLLIQFQNNGVVDDSQLPKDRFSAERLKGVDSTLKIQPAKLEDSAVYLCASSIETSYEQYFGPGTRLTVT
recognises | no recognition | no recognition | no recognition |  | A11 KRAS TCR_220_12 (TCR, V domains shown) Valpha: AQSVTQLDSHVSVSEGTPVLLRCNYSSSYSPSLFWYVQHPNKGLQLLLKYTSAATLVKGINGFEAEFKKSETSFHLTKPSAHMSDAAEYFCVVSDMVSGYALNFGKGTSLLVTP Vbeta: DIYQTPRYLVIGTGKKITLECSQTMGHDKMYWYQQDPGMELHLIHYSYGVNSTEKGDLSSESTVSRIRTEHFPLTLESARPSHTSQYLCASSESLYNEQFFGPGTRLTVL
